# Measurements as given in the supplement of paper PMC10567573.
# B1: PPEF2 (parent)
# chain: FIPSSHNDRDFLTRIFTEDRFAQD
# Variants of: B1
# Test: protein stability index of a GFP-peptide fusion (GPS, HEK-293T) (PSI 1-6); higher = more stable
# Conditions: c terminus: a fixed tail appended
# 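Further: lentivirally expressed fusions sorted by FACS into six bins by GFP to DsRed ratio, PSI derived from sequencing read proportions per bin multiplied by bin number.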
row,Variant,protein stability index
1,FIPSSHNDRDFLTRIFTEDRMAQD,1.87
2,FIPSSHNDRDFLTRIFTEDRPAQD,2.02
3,FIPSSHNDRDFLTRIFTEDRKAQD,1.84
4,FIPSSHNDRDFLTRIFTEDRQAQD,1.98
5,FIESSHNDRDFLTRIFTEDRFAQD,2.82
6,FIRSSHNDRDFLTRIFTEDRFAQD,1.72
7,FIKSSHNDRDFLTRIFTEDRFAQD,1.25
8,FINSSHNDRDFLTRIFTEDRFAQD,2.25
9,FIPSSHNDRDFVTRIFTEDRFAQD,2.86
10,FIPSSHNDRDFITRIFTEDRFAQD,3.01
11,FIPSSHNDRDFKTRIFTEDRFAQD,2.38
12,FIPSSHNDRDFDTRIFTEDRFAQD,2.26
13,FIPSSHNDRDFYTRIFTEDRFAQD,1.98
14,FIPSSHNDRDFFTRIFTEDRFAQD,2.18
15,FIPSSHNDRDFHTRIFTEDRFAQD,2.33
16,FIPSSHNYRDFLTRIFTEDRFAQD,2.55
17,FIPSSHNHRDFLTRIFTEDRFAQD,2.04
18,FIPSSHNLRDFLTRIFTEDRFAQD,1.52
19,FIPSSHNMRDFLTRIFTEDRFAQD,1.93
20,FIPSSHNNRDFLTRIFTEDRFAQD,1.99
21,FIPSSHNWRDFLTRIFTEDRFAQD,2.16
22,FIPSSHNDRDFLTRKFTEDRFAQD,2.77
23,FIPSSHNDRDFLTRGFTEDRFAQD,1.98
24,FIPSSHNDRDFLTRLFTEDRFAQD,1.56

row,Variant,protein stability index
1,FIPSSHNDRDFLTRFFTEDRFAQD,2.2
2,FIPSSHNDRDFLTRDFTEDRFAQD,2.01
3,FIPSSHNDRDFLTRCFTEDRFAQD,3.07
4,FIPSSHNDRDFLTRNFTEDRFAQD,1.83
5,FIPSSHNDRDFLTRYFTEDRFAQD,2.22
6,FIPSSINDRDFLTRIFTEDRFAQD,2.44
7,FIPSSVNDRDFLTRIFTEDRFAQD,1.5
8,FIPSSKNDRDFLTRIFTEDRFAQD,2.23
9,FIPSSTNDRDFLTRIFTEDRFAQD,1.38
10,FIPSSNNDRDFLTRIFTEDRFAQD,1.47
11,FIPSSLNDRDFLTRIFTEDRFAQD,2.23
12,FIPSSMNDRDFLTRIFTEDRFAQD,1.09
13,FIPSSCNDRDFLTRIFTEDRFAQD,1.61
14,FIPSSQNDRDFLTRIFTEDRFAQD,1.73
15,FIPSSHNDRDFLTRIFTMDRFAQD,2.96
16,FIPSSHNDRDFLTRIFTQDRFAQD,1.71
17,FIPSSHNDRDFLTRIFTFDRFAQD,2.52
18,FIPSSHNDRDFLTRIFTYDRFAQD,1.54
19,FIPSSHNDRDFLTRIFTKDRFAQD,2.47
20,FIPSSHNDRDFLTRIFTTDRFAQD,2.27
21,FIPSSHNDRDFLTRIFTWDRFAQD,2.25
22,FIPSSHNDRDFLTRIFTADRFAQD,2.64
23,FIPSSHNDRDFLTRIFTGDRFAQD,1.48
24,FIPSSHNDRDFLTRIFTLDRFAQD,2.19

row,Variant,protein stability index
1,FIPSSHNDRDFLTRIFTEDRFPQD,1.95
2,FIPSSHNDRDFLTRIFTEDRFDQD,2.56
3,FIPSSHNDRDFLTRIFTEDRFVQD,2.56
4,FIPSSHNDRDFLTRIFTEDRFLQD,2
5,FIPSSHNDRDFLTRIFTEDRFQQD,2.15
6,FIPSSHNDRDFLTRIFTEDRFKQD,3.16
7,FIPSSHNDRDFLTRIFTEDRFHQD,1.83
8,FIPSSHNDRDFLTRIFTEDRFRQD,2.16
9,FIPSSHNDRDFLTRIFTEDRFNQD,2.59
10,FIPSSHNDRDFLTRIFTEDRFMQD,1.8
11,FIPSSHNDRDFLTRIFTEDRFAQW,2.63
12,FIPSSHNDRDFLTRIFTEDRFAQK,1.99
13,FIPSSHNDRDFLTRIFTEDRFAQG,2.13
14,FIPSSHNDRDFLTRIFTEDRFAQA,2.61
15,FIPSSHNDRDFLTRIFTEDRFAQM,1.94
16,FIPSSHNDRDFLTRIFTEDRFAQL,2.2
17,FIPSSHNDRDFLTRIFTEDRFAQN,1.62
18,FIPSSHNDRDFLERIFTEDRFAQD,2
19,FIPSSHNDRDFLGRIFTEDRFAQD,2.42
20,FIPSSHNDRDFLARIFTEDRFAQD,2.57
21,FIPSSHNDRDFLIRIFTEDRFAQD,2.21
22,FIPSSHNDRDFLDRIFTEDRFAQD,1.83
23,FIPSSHNDRDFLFRIFTEDRFAQD,1.5
24,FIPSSHNDRDFLKRIFTEDRFAQD,1.38

row,Variant,protein stability index
1,FIPSSHNDRDFLTRIHTEDRFAQD,1.69
2,FIPSSHNDRDFLTRIMTEDRFAQD,1.84
3,FIPSSHNDRDFLTRILTEDRFAQD,1.91
4,FIPSSHNDRDFLTRIVTEDRFAQD,2.6
5,FIPSSHNDRDFLTRIPTEDRFAQD,2.96
6,FIPSSHNDRDFLTRIFTEKRFAQD,2.44
7,FIPSSHNDRDFLTRIFTENRFAQD,1.57
8,FIPSSHNDRDFLTRIFTEMRFAQD,3.16
9,FIPSSHNDRDFLTRIFTEPRFAQD,1.99
10,FIPSSHNDRDFLTRIFTEQRFAQD,1.68
11,FIPSSHNDRDFLTRIFTEERFAQD,2.32
12,FIPSSHNDRDFLTRIFTEFRFAQD,1.77
13,FIPSSHNDRDFLTRIFREDRFAQD,1.73
14,FIPSSHNDRDFLTRIFYEDRFAQD,2.08
15,FIPSSHNDRDFLTRIFSEDRFAQD,2.05
16,FIPSSHNDRDFLTRIFFEDRFAQD,1.87
17,FIPSSHNDRDFLTRIFGEDRFAQD,2.7
18,FIPSSHNDRDFLTRIFPEDRFAQD,1.97
19,FIPSSHNDRDFLTRIFDEDRFAQD,1.95
20,FIPSSHNDRDFLTRIFNEDRFAQD,1.68
21,FIPSSHNDRDFLTRIFAEDRFAQD,1.71
22,FIPSSHNDRDFLTRIFLEDRFAQD,2.65
